# Where no end group is shown, it is not given here.
# B1: 2H2D11 antibody (antibody, IgG2a, V domains shown)
# VH: EVRLVESGGGLVQPGGSLRLSCATSGFTFTDYYLSWVRQPPGKAFEWLGFIRNRADGYTTNYSASVKGRFTISRDNSQSILYLQMNTLRVEDSATYYCARDNDHYAMDYWGQGTSVTVSS
# VL: DVVMTQTPLSLSVTIGQPASISCKSSQSLLYSNGKTYLNWLQQRPGQAPKHLMYQVSKLDPGIPDRFSGSGSETDFILKISRVEAEDLGIYYCLQGTYYPYTFGGGTKLEIK
# notes: also called Mab 2H2D11; monoclonal antibody directed against AcMet11-Tau
# Target: T1, Ac-Met11-Tau peptide: {N-alpha-acetyl}MEDHAGTYGLG (human)
# T1 construct: Synthetic peptide coated on the ELISA plate; The C-terminal cysteine was added only for KLH conjugation of the immunogen; also called N-alpha-acetyl-Met11-Tau peptide; AcMet11-peptide
# T1 peptide: Ac-MEDHAGTYGLG
# Test: indirect ELISA on coated peptide, positive control
binder,measurement,value
B1,binding result,binds
